Assay results as given in PMC7835374 (Nature Communications, 2021).

B1: 3I14 fragment antigen-binding region (Fab) (Fab, V domains shown)
VH: QVQLLESGGGVVQPGRSLRLSCAASGFTFSNYGMHWVRQAPGKGLEWVAIISFDGSKKYYANSVKGRSTISRDNSKNTLSLQMNSLGPEDTALYYCAKLPSPYYFDSRFVWVAASAFHFWGQGILVTVSS
VL: NFMLTQPPSASGTPGQRVTISCSGSSSNIGGNTVHWFQQLPGTAPKLLIYTNSLRPSGVPDRFSGSKSGTSASLAISGLQSEDEADYYCAAWDDSLNGQVFGGGTKLTVL
B2: 3I14^D93N Fab (Fab, V domains shown)
VH: QVQLLESGGGVVQPGRSLRLSCAASGFTFSNYGMHWVRQAPGKGLEWVAIISFDGSKKYYANSVKGRSTISRDNSKNTLSLQMNSLGPEDTALYYCAKLPSPYYFDSRFVWVAASAFHFWGQGILVTVSS
VL: LTQPPSASGTPGQRVTISCSGSSSNIGGNTVHWFQQLPGTAPKLLIYTNSLRPSGVPDRFSGSKSGTSASLAISGLQSEDEADYYCAAWDNSLNGQVFGGGTKLTVL

Molecular target: T1, hemagglutinin H3 (A/Victoria/361/2011), trypsin-cleaved HA1/HA2 trimer for crystallization (Influenza A virus A/Victoria/361/2011 …, UniProt A0A097PF39, strain, N-linked glycans (a group 2-specific sugar at position 38 of HA1))
T1 construct: copies: 3 + 3
Experiment: crystal structure
Conditions: both partners purified

Row | Binder | binding result
1 | B1 | binds
2 | B2 | binds
